In patent US6472171:

T1: chicken protein disulfide isomerase, P09102
T1 chain: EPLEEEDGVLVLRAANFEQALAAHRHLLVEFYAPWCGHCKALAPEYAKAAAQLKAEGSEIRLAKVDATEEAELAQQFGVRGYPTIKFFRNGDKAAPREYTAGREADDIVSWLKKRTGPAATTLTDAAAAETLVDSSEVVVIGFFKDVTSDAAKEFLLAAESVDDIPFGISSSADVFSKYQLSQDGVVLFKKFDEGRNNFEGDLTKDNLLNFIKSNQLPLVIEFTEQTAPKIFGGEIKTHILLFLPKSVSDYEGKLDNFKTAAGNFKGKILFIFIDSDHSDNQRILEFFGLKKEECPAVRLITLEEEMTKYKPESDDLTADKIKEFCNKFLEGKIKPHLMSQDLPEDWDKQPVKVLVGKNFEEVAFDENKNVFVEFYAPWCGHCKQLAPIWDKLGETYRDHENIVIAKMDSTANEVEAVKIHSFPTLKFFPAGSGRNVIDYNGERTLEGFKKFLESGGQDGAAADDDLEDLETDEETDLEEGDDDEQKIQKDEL


Legend:
[1] = biological target: T1, chicken protein disulfide isomerase, …
[2] = biological target: human protein disulfide isomerase, P07237
Sequence of human protein disulfide isomerase, P07237 (P07237 18-508): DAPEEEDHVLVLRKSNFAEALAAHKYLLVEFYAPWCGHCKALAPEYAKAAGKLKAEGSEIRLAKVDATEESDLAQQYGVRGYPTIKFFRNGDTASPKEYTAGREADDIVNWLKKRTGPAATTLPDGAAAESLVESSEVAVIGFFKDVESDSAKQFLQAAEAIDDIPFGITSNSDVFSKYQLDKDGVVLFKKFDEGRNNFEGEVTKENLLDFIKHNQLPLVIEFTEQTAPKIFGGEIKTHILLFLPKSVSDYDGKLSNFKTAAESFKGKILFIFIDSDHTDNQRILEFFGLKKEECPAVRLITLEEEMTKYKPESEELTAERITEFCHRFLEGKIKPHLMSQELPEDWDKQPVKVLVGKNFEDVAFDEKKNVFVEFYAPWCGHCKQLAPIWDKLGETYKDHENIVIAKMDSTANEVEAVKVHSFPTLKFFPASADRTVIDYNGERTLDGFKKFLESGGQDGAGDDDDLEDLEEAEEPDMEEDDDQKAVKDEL

Protein | production of hydroxylated, heterotrimeric type 1 procollagen in yeast (plasmid Gp5511, cPDI/hP4-H) [1] | production of hydroxylated, heterotrimeric type 1 procollagen in yeast (plasmid Gp5565, hPDI/hP4-H) [2] [times lower] | production of hydroxylated, heterotrimeric type 1 procollagen in yeast (plasmid Gp5563, cPDI/cP4-H) [1]
human prolyl 4-hydroxylase subunit (protein) HPGFFTSIGQMTDLIHTEKDLVTSLKDYIKAEEDKLEQIKKWAEKLDRLTSTATKDPEGFVGHPVNAFKLMKRLNTEWSELENLVLKDMSDGFISNLTIQRQYFPNDEDQVGAAKALLRLQDTYNLDTDTISKGNLPGVKHKSFLTAEDCFELGKVAYTEADYYHTELWMEQALRQLDEGEISTIDKVSVLDYLSYAVYQQGDLDKALLLTKKLLELDPEHQRANGNLKYFEYIMAKEKDVNKSASDDQSDQKTTPKKKGVAVDYLPERQKYEMLCRGEGIKMTPRRQKKLFCRYHDGNRNPKFILAPAKQEDEWDKPRIIRFHDIISDAEIEIVKDLAKPRLRRATISNPITGDLETVHYRISKSAWLSGYENPVVSRINMRIQDLTGLDVSTAEELQVANYGVGGQYEPHFDFARKDEPDAFKELGTGNRIATWLFYMSDVSAGGATVFPEVGASVWPKKGTAVFWYNLFASGEGDYSTRHAACPVLVGNKWVSNKWLHERGQEFRRPCTLSELE | Plasmid Gp5511 (cPDI/hP4-H) generated the first hydroxylated type 1 (α1α2) procollagen expressed in yeast | < 3 | 
chicken prolyl 4-hydroxylase subunit (protein) HTDFFTSIGHMTDLINTEKDLVISKLKDYIKAEESKLEQIKKWAEKLDKLTDTATKDPEGFLGHPANAFKLMKRLNTEWGELESLVLKDMSDGFISNMTIQRQFFPNDEDQTGARKALLRLQDTYNLDTDTLSRGNLPGVKHKSFLTAEDCFELGKIRYTEADYYHTELWMEQALKQLDEGEVSSADKVYILDYLSYAVYQQGDLSKAMMLTKRLLELDPEHQRANGNMKYFEYIMAKEKEANKSSTDAEDQTDKETEVKKKDYLPERRKYEMLCRGEGLKMTPRRQKRLFCRYYDGNRNPRYILGPVKQEDEWDKPRIVRFLDIISDEEIETVKELAKPRLSRATVHDPETGKLTTAHYRVSKSAWLSGYESPVVSRINTRIQDLTGLDVSTAEELQVANYGVGGQYEPHFDFGRKDEPDAFKELGTGNRIATWLFYMSDVSAGGATVFPEVGASVWPKKGTAVFWYNLFPSGEGDYSTRHAACPVLVGNKWVSNKWLHERGQEFRRPCTLSELE |  |  | produce levels of hydroxylated heterotrimeric procollagen equal to that found with plasmid Gp5511
